From the DeepSol protein solubility set come the findings set out here.

This data set in a line: soluble on expression in E. coli; label from the status in PepcDB or PDB records.
For the sequence “MNRNRRDGPQRDVKRERRSRSRSPRRSRIGAAVGSNNGNSSSNNRMVFITNIAYEARWVDLKSLVREKGGEVAFCELLEDRNGKPKGNAVVEFETREGAEKCVENLQKFDWKGRTIIAKEIRDPNAFFRTIKTETGIDYLSRTGGGGAGGRGPPPKDLDRPTRTGTYDLFGLNMEFLRQHNIEPPLCERIFIANLAFNVGTDKLYEVFGMAGKITWMDFRIDKEGKSKGVCVIQYTHPIEAVQAVSMLNGQRLFDRNLVVKMDRFDKELEHKEGGLPRGLESIGMGLGAEGAPLSNVHGMFPGDASVPFTAPAAPFVGGPQVVSAGGFGGVVEQANFARSVMNNGPFGGNAGVGGAGGATFAQPDVFGVNGAGGLAGAATPQATRVIIIRNLPSDYTWQIVRDRVRNFGEVDSVDMMAPGAARIRFATFQDAERARAALYGSTVEGRMISVDYA”, the “soluble on expression in E. coli” value is on record as “soluble”. Then “MNRRMMLASAALLLAPLAAQAQTRDVSVTIYNSNLALVEDARPLDLKAGRQKLEFKDVSAAIRPETVSLSAPGVTILEQNFDYDLLTPDKLMEKAVGQKVKIVRTNPGDGKETTEVATVLAANQGVVLKIGDRIEVLRDDGVPTRVIFDKVPETLRARPTLSVSVEAAGAGTRQAKLSYLTSGLSWKADYVALFDEAKSTMDLQGWITLSNNSGTPFENARTQLVAGDVNQLNDGGYRSSRSPGMISAGTESGVGERVADYYVYPLPERTTIASNQNKQVGFLSAQGVTAKKVYEVREGWFTSQAEPTKAVVAIQFSNARLAGLGAQLPMGTMRVYMRDAAGDPKFVGENAIGHTPAGSELSIKTGEAFDVSGQATLVAESRVSKRLTRYEMKYLLRNAKDQPVTVELRQGGLGRDSTVKAESLKGRRIDAGTLGWSVPVPANGETVLTFTVETGWLEHHHHHH”, with “soluble”; and “MNRRVVIVTAVHGPSAPFLPEAYASLCAQELPDGWEWRWVIQEDGRTQDVRPHVPDDPRVVFHQGRHGRQGGPGVARTMALAHADGAYVKVLDADDRLTPGALARDLAALEADPSIGWATSRVLDLLPDGSTAGFPGDPAHGPIERGEVLDFWRANGFRAQVHPATLLVRRDLLLAVGGWMALPASEDTGLLLALNCVSRGWFTEDVGLLYRKWEGQETGQASHVDPAERDARMTVVEARARALASFGWRLPEGTGDFDHLEHHHHHH”, with “not soluble”.

In the case of “MNRTALVLGCLLVATPALAQSVTEKTGVNSVLGIAPTTPDFVKQVAISDMFEIQSNQLAERKGNAAQQAFAKQMIADHTKTSSELKAMVSDGKVKAELPTALDSAHQSKLDKLKNANGAEFSETFDEQQVSAHKDAVSLFERYAKGGDNDALKKWAGTTLPKLQHHLEMAQQLERDRTNTTSESKAKK”, the “soluble on expression in E. coli” value is on record as “not soluble”. Then “MNSDVIKGKWKQLTGKIKERWGDLTDDDLQAADGHAEYLVGKLQERYGWSKERAEQEVRDFSDRL”, with “soluble”. For “MNSEHPMTDRVVYRSLMADNLRWDALQLRDGDIIISAPSKSGLTWTQRLVSLLVFDGPDLPGPLSTVSPWLDQTIRPIEEVVATLDAQQHRRFIKTHTPLDGLVLDDRVSYICVGRDPRDAAVSMLYQSANMNEDRMRILHEAVVPFHERIAPPFAELGHARSPTEEFRDWMEGPNQPPPGIGFTHLKGIGTLANILHQLGTVWVRRHLPNVALFHYADYQADLAGELLRPARVLGIAATRDRARDLAQYATLDAMRSRASEIAPNTTDGIWHSDERFFRRGGSGDWQQFFTEAEHLRYYHRINQLAPPDLLAWAHEGRRGYDPAN” the value was “soluble”; for “MNSENSFSSSEHITVLLHEAVNGLALKENGIYIDGTFGRGGHSRFILSQLSSNGRLIAVDRDPRAIAEAHKIQDLRFQIEHNSFSHIPEICDKLNLVGKIDGILLDLGVSSPQLDEAERGFSFMKDGPLDMRMDTTQGLSAEEWLKQVSIEDLTWVLKTFGEERFAKRIATAIVDFNKSAVKNGTEFLSRTSQLAELISQAVPFKDKHKHPATRSFQAIRIFINSELDELESLLNSALDMLAPEGRLSIISFHSLEDRMVKHFMKKQSKGEDIPKGLPLREDQIQRNQKLRIIGKAIQPSDAEIQANPRSRSAILRVAERI”, “not soluble”. As to “MNSEQQQTVFLCVSYLLSYPDEQWAESLPDCLDAIRSLDDETVRAPLLAFAEQINSIPARQRMEQYVETFDFGKKTNLYLTYMTNGEQRERGIELVALKARYQAAGFAVSDHELPDYLPLMLEWMAYADQEHTTALLADYAGHIREIGDRLAAAGSPYAQLFDALNHTFTQLGVTPLPKGGATAWPANFSG”, the “soluble on expression in E. coli” value is on record as “not soluble”. Then “MNSFIEGAHQPLLSVWRRAFLFSGALLLTACSHNASPPPFTASGFAGDHGAVRIWRKDTNDEVHLLSVFSPWHSGSTTTSEYRWQGDTLSLIELNIYSKPPEHIRARFDAHGELSFMQREVGGQKQQLSNDQIALYRYRAEQIRQTSDALRLGRVILRQGRWHADHTVTTCEGETLKPDLDSWAISHIERRQNHSSVEVSVAWLEAPEGSQLLLVANSDFCHWQPQAKSF”, with “not soluble”.

With “MNSFRWDIYFETGIEDVDDQHQYLVEFINKYGKLLTRNTISIADIQSALFELSRYAEFYFKEEENLMREVGIHHEHLQKHIQVHRTFMGDIVSMQSFINEDNRQSAEQLLDFLIHWLAYHILGIDQNMAKQIKAIERGVSPLEAYREQEQQANASTEP”, the “soluble on expression in E. coli” value is “soluble”.

As for “MNSKSAQGLAGLRNLGNTCFMNSILQCLSNTRELRDYCLQRLYMRDLHHGSNAHTALVEEFAKLIQTIWTSSPNDVVSPSEFKTQIQRYAPRFVGYNQQDAQEFLRFLLDGLHNEVNRVTLRPKSNPENLDHLPDDEKGRQMWRKYLEREDSRIGDLFVGQLKSSLTCTDCGYCSTVFDPFWDLSLPIAKRGYPEVTLMDCMRLFTKEDVLDGDEKPTCCRCRGRKRCIKKFSIQRFPKILVLHLKRFSESRIRTSKLTTFVNFPLRDLDLREFASENTNHAVYNLYAVSNHSGTTMGGHYTAYCRSPGTGEWHTFNDSSVTPMSSSQVRTSDAYLLFYELASPPSRMAAALEHHHHHH”, the “soluble on expression in E. coli” value was “soluble”. For “MNSLLFVYGTLRKHEKNHHLLAQSACINEQARTKGSLFAAKEGPTVVFNDEDEGYIYGEVYEADELCIHKLDQFFQGYHKQTVFVETDVGIKIALIYFMNKDGCAGFTKISSGDWKEHQMISKSKNPIYYFAYGSCMDNARFQKAGVDHYFQDPVGRAVLKGYTTRFTLKREDGSRADMLEDGGTTEGVLYRIPYSALSYLYKREGVESLTYRPAFVDVEAGGRHYKDCLTFLVLQKEAEIAPPQHYQIEIERGAELYLSPEFTEKLKRHMNSLPKGLEHHHHHH” the value was “soluble”.

As for “MNSPLPDVALTEVSSALIALDWVGMQGVEVPLTLGEQGATHPVHAYADLQVDLTDPSVKGIHMSRLYRLLDGFAEHQVLTPETLSALLEAMVESHVDCHSSGARITLTFNLLCRRPALVTEGLSGWKSYPVKLEAVWRAGRLCLDVSADITYSSTCPCSAALSRQLLEEAFVARFGRQSFVDPMQVAAWLRENASYATPHSQRSVATVQVRVAEQATEMGLMALIDTVEQALGTPVQTAVKRADEQAFARLNGQNLMYVEDAARKIQQALEGRYPASSVSVRHFESLHPHDAAAQTSSYLS”, the “soluble on expression in E. coli” value is on record as “not soluble”. Then “MNSQNPDDHEDTTVVGFEVPVSPVSSYNNVYSSTEDETRDPPAVPPHLQHSLLGNQGSMELAYAPQNVVLNHLYIENRDAPRSVVALGFSHRFRTKFVTVVIYKPVQRRGSANV”, with “not soluble”.

Turning to “MNTCRGQHGPRRPEAGAAGHRAHVDGGQRGPGGQQEPDWHKAGATIPRLPSPSGSPWRREQDPAPGEPPHIPAHGNRPGGQEIRPRIPGLDREARPAVPPTHSPSYRIRLAGSEPSLVQAAPGQAVQLFCPGNIPPEFQAGWQKEGRPISSNRYQLQADGSLIISRLRPEDAGIYSCGSHRPGHEPQEIQLRVTGGDMAVLPEGQPRHFPEPRNPDLGHGPPHRGTGAEAGGHRVLSPSHPRPATRLRLDRTQPGVVDASPGQRIRLTCRAEGFPVPTIEWQRDGQLVSSPRHQVQPDGSLVISRVDVEDGGYYSCVAFNGQDRDQRWVQLRVLRELTITGLPPAVTVAEGDTARLLCVVAGESVNIRWSRNGLPIQADGHRVHQSPDGTLLIHNLRPRDEGSYTCSAFRGSQAVSRSTEVKVALPAPAAQSRDLGKDCIDQPELANCALILQAQLCGNEYYSSFCCASCSRFQPNAQPVWQQG”, the “soluble on expression in E. coli” value was “soluble”.

Regarding “MNTIAFKEIFLPIRPSIRAVCHAFLRDDEEAEDATQEVYLRLWEARMRLDGLDNPRAYAIRIARNYCLNLIRKASNSPYPTSLEAAEVQEVSETHGGEADLLLSEQIGRLRQWLRGVSELYRTVFAMSHFRRLSNGEIAERLGLTEGNVRVILCRLRREAKEVMKDDA”, the “soluble on expression in E. coli” value is “not soluble”.

With “MNTKLPLDLFNQAKRSASQDQPALFSWVTELDELVSPVKLFKKAGTAFKGERFFWQNPEMTLTMTGFGVTKQFLAEKKKDAFLGLQEKIEKRLRTSVTNATVDATGPVYFGGFAFDPERDTEKEWQSFKDGLFYLPLFMLTNKDGKSYLTVNLSIYSDDTESKLEAVFNQWQKIIHQEVNEAEMALLTDFKEIGKDHFLETASEIIDMINHSEDVKKVVLARRMGLRFQRQVDSAIILENMLATQENSYFFLIEKGTGVFFGATPERLLAVNGDEIHSSCVAGSTERGATEEADEALGNALLKDAKNLREHSYVVQMMEETLKPFTTGLSLSSQPVLLKNRDIQHLYMNITAKKKPDVSMLEMVKALHPTPALGGLPQKMGLAIIRMKEEMDRGFYGAPIGWVDLKGSGEFAVAIRSGLIVDSQGLIYAGCGIVGDSVPKEELQETAVKFQPMLRVLGGIKK”, the “soluble on expression in E. coli” value is “not soluble”.

Take “MNTQYLQYVREQLMVATADLSGETKGQLLAWLENAQFDTKNYPRKKQRIWDEETESWITLNNPPIPGKQSLAKGSAIPLVKPVEYSTASWRRAVLSLDEHYKAWLLWNYSENTCWEHQVEITQWGWSAFAAQLDGKKMAGKTQERLRALIWLAAQDVKSELAGREVYQYKELAGLVGVSEKNWSETFTRHWLTMRAIFLRLDQASLLSVSESRSEQVAFNLYALN”: the “soluble on expression in E. coli” value is on record as “not soluble”.

As to “MNVFYTREGVGDVLLVSLKPAADEERTFVRQGDVVRIMSERTGETVGYNIFSASSYYPFSGNGPLEVNEELVGVINDILAKNGFDEPIEADLSPKFVVGYVKEKTKHPNADKLSVCQVDVGGEVLQIVCGAPNVAEGQKVVVAKIGAVMPNGLVIQESELRGVRSSGMICSARELGLPNAPQEKGILVLSDEYEVGQPFVF”, the “soluble on expression in E. coli” value was “not soluble”. In the case of “MNVMLSKNYMMEKYNMSTTVGLPQFSHIKIEHFKSHLDALLKNHLEEIDRLLKENHHYTWDNLIYPLDSLADELERFWSPFAHMHAVMDSETIRESYEACLPLLSAYDAAIGHNQDLYEAIKSIDQHSLNPAQKKIIADSIQDFEL”, the “soluble on expression in E. coli” value is “not soluble”. Consider “MNVSVVIPALNEEATVADVVALSRRGSDEVIVIDSDSTDATAARAKAAGASVVNWRDVVSLPPIPGKGEALWRGVAAARGDVVVFLDADLTEISPTIVEDLARPFIDDSVMLAKAAYTRGDASGGGGRVTELTARPLLEAFFPELGFVRQPLGGEYAIRRSAALDLPFVGGYGVEVGLLIDVFRCFGAASIVEVEAGHRGHRHRPLRELAPMARVVASTILQRAGVASGLDGVGQRPAISSLESGVGKVLEHHHHHH”, for which the “soluble on expression in E. coli” value is reported as “soluble”.
